# Literature values, collected in patent publication US20220089455A1, “METHOD FOR PRODUCING NANOPARTICLE HAVING METAL PARTICLE WHICH CONTAINS IRON OXIDE TO WHICH ONE OR MORE HYDROPHILIC LIGANDS ARE COORDINATION BONDED” (ASTELLAS PHARMA INC., priority 2018, published 2022).
# B1: ovalbumin (protein, UniProt P01012 2-386, looked up)
# Ovalbumin: GSIGAASMEFCFDVFKELKVHHANENIFYCPIAIMSALAMVYLGAKDSTRTQINKVVRFDKLPGFGDSIEAQCGTSVNVHSSLRDILNQITKPNDVYSFSLASRLYAEERYPILPEYLQCVKELYRGGLEPINFQTAADQARELINSWVESQTNGIIRNVLQPSSVDSQTAMVLVNAIVFKGLWEKAFKDEDTQAMPFRVTEQESKPVQMMYQIGLFRVASMASEKMKILELPFASGTMSMLVLLPDEVSGLEQLESIINFEKLTEWTSSNVMEERKIKVYLPRMKMEEKYNLTSVLMAMGITDVFSSSANLSGISSAESLKISQAVHAAHAEINEAGREVVGSAEAGVDAASVSEEFRADHPFLFCIKHIATNAVLFFGRCVSP
# Conditions: standard used for SEC comparison
molecule,measurement,value
B1,particle diameter of the standard,6.1 nm
